According to US20260183365A1, “COMBINATION THERAPY FOR C3 INHIBITION” (Apellis Pharmaceuticals, Inc., priority 2016, published 2026):

Tests used:
[1] = Phase 1 single and multiple ascending dose trial of inhaled (nebulized) CA28 in healthy volunteers; format: in vivo, human
Procedure: In the single ascending dose part of the trial, 16 subjects were enrolled in four cohorts of four subjects each.
Four subjects were enrolled in the first cohort of the multiple ascending dose part of the trial. These subjects were to receive 14 consecutive days of treatment with a 60 mg/day dose of the drug. […] The trial was paused and subsequently resumed, with subjects receiving 30 mg/day. […] The trial was then terminated.

[2] = target: T1, complement component C3 (human, UniProt P01024 23-1663); assay: cell-based or functional assay
[3] = target: T1, complement component C3; assay: cell-based or functional assay; remark: listed apart in the source

## CC[C@H](C)[C@H](NC(C)=O)C(=O)N[C@H]1CSSC[C@@H](C(=O)N[C@H](C(N)=O)[C@@H](C)O)NC(=O)[C@H](CCCNC(=N)N)NC(=O)[C@H](Cc2cnc[nH]2)NC(=O)[C@H](C)NC(=O)CNC(=O)[C@H](Cc2c[nH]c3ccccc23)NC(=O)[C@H](CC(=O)O)NC(=O)[C@H](CCC(N)=O)NC(=O)[C@H](Cc2cn(C)c3ccccc23)NC(=O)[C@H](C(C)C)NC1=O [CA28]
[1]; inhaled 30 mg/day, after 10 days
  adverse event: Another subject developed signs and symptoms consistent with a potential bacterial infection
[1]; inhaled 60 mg/day, after nine days
  adverse event: one subject developed signs and symptoms consistent with a potential bacterial infection

B1: CA28-AEEAc-Lys(mPEG40K-succinyl) (peptide)
peptide: ICVWQDWGAHRCTK
modifications: not fully specified; N-terminal acetyl; (1Me)Trp at position 4; disulfide Cys2-Cys12; AEEAc between Thr13 and Lys; 40 kD mPEG (NOF ME-400CS) on the Lys15 side chain; C-terminal amide
[2]
  IC50 (read off the curve) (classical pathway complement activation, C3b deposition ELISA with human plasma): ~700 nM

B2: CA28-AEEAc-Lys-(PEG40k) (peptide)
peptide: ICVWQDWGAHRCTK
modifications: not fully specified; N-terminal acetyl; (1Me)Trp at position 4; disulfide Cys2-Cys12; AEEAc between Thr13 and Lys; linear monofunctional 40 kD PEG (NOF ME-400GS) on the Lys side chain; C-terminal amide
[2]
  IC50 (read off the curve) (classical pathway complement activation, C3b deposition ELISA with human plasma): ~700 nM

B3: CA28-AEEAc-Lys(mPEG40K-hexanoyl) (peptide)
peptide: ICVWQDWGAHRCTK
modifications: not fully specified; N-terminal acetyl; (1Me)Trp at position 4; disulfide Cys2-Cys12; AEEAc between Thr13 and Lys; 40 kD mPEG (NOF ME-400HS) on the Lys15 side chain; C-terminal amide
[2]
  IC50 (read off the curve) (classical pathway complement activation, C3b deposition ELISA with human plasma): ~700 nM

B4: CA28-AEEAc-Lys(mPEG40K-carbonyl) (peptide)
peptide: ICVWQDWGAHRCTK
modifications: not fully specified; N-terminal acetyl; (1Me)Trp at position 4; disulfide Cys2-Cys12; AEEAc between Thr13 and Lys; 40 kD mPEG (NOF ME-400TS) on the Lys15 side chain; C-terminal amide
[2]
  IC50 (read off the curve) (classical pathway complement activation, C3b deposition ELISA with human plasma): ~700 nM

B5: CA28-2TS-BF (peptide)
peptide: ICVWQDWGAHRCTK
modifications: not fully specified; N-terminal acetyl; (1Me)Trp at position 4; disulfide Cys2-Cys12; AEEAc between Thr13 and Lys; Lys side chain linked by a carbamate to one end of a bifunctional linear 40 kD PEG of the TS type; C-terminal amide
[3]
  IC50 (read off the curve) (alternative pathway complement activation, LPS-coated plate, C3b deposition ELISA) [B]: ~400 nM
